Source: patent US20110059078A1 (AstraZeneca / MedImmune, published 2011)
One block for each molecule: values may come before it.

What was measured:
[1] = molecular target: human interferon alpha receptor 1 (IFNAR1), on cells (human) (UniProt P17181); experiment: cell-based or functional assay
ovalbumin [2] = molecular target: T1, ovalbumin (UniProt P01012 2-386); experiment: BIAcore, control surface, FcγRI injected at 20 nM, reference-subtracted
T1 construct: Control protein; also called soluble ovalbumin
T1 sequence (looked up): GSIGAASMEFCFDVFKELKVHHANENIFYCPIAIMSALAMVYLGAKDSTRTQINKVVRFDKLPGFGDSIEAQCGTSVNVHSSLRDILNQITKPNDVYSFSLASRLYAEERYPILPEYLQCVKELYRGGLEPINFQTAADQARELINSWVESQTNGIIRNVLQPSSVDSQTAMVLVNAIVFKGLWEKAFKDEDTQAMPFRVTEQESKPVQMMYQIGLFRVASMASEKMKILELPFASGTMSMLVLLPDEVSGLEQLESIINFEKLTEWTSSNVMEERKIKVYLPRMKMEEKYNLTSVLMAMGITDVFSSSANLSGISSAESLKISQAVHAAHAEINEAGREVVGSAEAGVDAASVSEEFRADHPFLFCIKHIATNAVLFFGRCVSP
Procedure: Methods: All experiments were performed on a BIAcore 3000 instrument (BIAcore, Inc., Uppsala, Sweden). In a typical experiment 1 μM solutions of 9D4 IgGs were used to immobilize anywhere from ˜7000 RUs−˜11,000 RUs of protein onto CM5 sensor chip surfaces using a standard amino coupling protocol (BIAcore, Inc.). Separately, a blank surface was also prepared on each chip using the identical protocol, minus the protein. This blank surface was used as a reference cell throughout the experiment, and served to correct for both non-specific binding and certain housekeeping artifacts.

[3] = molecular target: T2, human interferon alpha receptor 1 (IFNAR1), on cells (human, UniProt P17181 28-557); experiment: cell-based or functional assay
T2 sequence (looked up): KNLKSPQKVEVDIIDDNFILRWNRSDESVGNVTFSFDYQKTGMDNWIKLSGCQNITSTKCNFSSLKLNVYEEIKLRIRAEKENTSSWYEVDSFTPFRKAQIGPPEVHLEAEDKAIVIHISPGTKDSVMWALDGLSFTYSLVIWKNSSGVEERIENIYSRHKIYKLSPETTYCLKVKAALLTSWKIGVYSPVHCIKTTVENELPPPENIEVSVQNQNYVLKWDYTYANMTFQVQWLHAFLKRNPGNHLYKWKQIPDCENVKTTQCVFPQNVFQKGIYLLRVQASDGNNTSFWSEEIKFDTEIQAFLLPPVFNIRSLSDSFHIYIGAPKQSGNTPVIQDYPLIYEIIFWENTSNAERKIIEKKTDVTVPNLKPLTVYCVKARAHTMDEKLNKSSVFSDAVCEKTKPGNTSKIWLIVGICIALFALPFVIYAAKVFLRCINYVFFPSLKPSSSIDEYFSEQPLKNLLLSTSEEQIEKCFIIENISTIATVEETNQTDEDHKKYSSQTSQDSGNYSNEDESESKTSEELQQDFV

ovalbumin [4] = molecular target: T1, ovalbumin; experiment: BIAcore, ovalbumin control, antibody at 333 nM, reference-subtracted
Procedure: All experiments were performed on a BIAcore 3000 instrument (BIAcore, Inc., Uppsala, Sweden). […] Separately, a blank surface was also prepared on each chip using the identical protocol, minus the protein. This blank surface was used as a reference cell throughout the experiment, and served to correct for both non-specific binding and certain housekeeping artifacts.

[5] = molecular target: T2, human interferon alpha receptor 1 …; experiment: europium-labelled antibody binding to HEK 293F cells, Kd from binding curves (GraphPad Prism)
Procedure: Methods: 200,000 HEK 293F cells were seeded in a round bottom, 96-well plate using 50 μL RPMI 1640 media supplemented with 10% FBS. […] 25 μL of europium conjugated, serially diluted antibody was then added to appropriate wells and cells and antibodies were agitated gently at room temperature for 1-2 hours. After binding incubation, 150 μL of cell media was added to all wells and plates were spun at 1200 rpm for 5 minutes at room temperature. Plates were quickly decanted and 250 μL cell media was added to all wells. Spins and washes were repeated for a total of 3 washes. Cells were then resuspended in 100 μL cell media. 50 μL of resuspended cells were transferred to 200 μL of DELPHIA enhancement solution (PerkinElmer) in a DELPHIA yellow microtiter plate and Europium emission was measured on a Victor2 Multilabel reader (PerkinElmer). Signal was measured in cps and Kd values and Bₘₐₓ values were generated using GraphPad Prism 4 analysis software.

[6] = molecular target: T2, human interferon alpha receptor 1 …; experiment: cell-based or functional assay; remark: listed apart in the source
[7] = molecular target: T3, FcγRIIIA variant 158V (high affinity) with Flag tag (UniProt P08637 17-208); experiment: ELISA, antibody coated on the plate at 50 µg/ml, Flag-tagged FcγRIIIA titrated, biotin anti-Flag and avidin-HRP
T3 construct: also called FcγRIIIA-10 158V; not shown: Flag tag
T3 sequence (P08637 other isoform, or with tags, fused parts or gaps mutant): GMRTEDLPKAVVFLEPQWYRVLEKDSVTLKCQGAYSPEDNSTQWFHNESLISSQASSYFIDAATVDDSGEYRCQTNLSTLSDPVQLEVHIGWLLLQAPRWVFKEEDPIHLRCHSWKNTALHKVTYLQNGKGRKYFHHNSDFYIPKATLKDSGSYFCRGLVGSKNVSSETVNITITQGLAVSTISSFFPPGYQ
Procedure: (§1) The plate was washed one hour later and incubated with biotin conjugated anti Flag antibody (Sigma) at 2 μg/ml. After washing 25 μl of HRP conjugated Avidin was added to each well. The unbound materials were removed by washing one hour after incubation. The binding signal was detected with the substrate TMB.

[8] = molecular target: T4, FcγRIIIA variant 158F (low affinity) with Flag tag (UniProt P08637 17-208, limits assumed); experiment: as above
T4 construct: not shown: Flag tag
T4 sequence (P08637 17-208 limits assumed, change not shown): as the sequence (P08637 other isoform, or with tags, fused parts or gaps mutant) above, with V160F counted along it
Procedure: as §1

[9] = molecular target: T2, human interferon alpha receptor 1 …; experiment: IHC of human monocytes with biotinylated antibody
Procedure: Human Monocytes: A cell suspension was smeared/spotted directly onto slides. The slides were allowed to dry overnight and then soaked in Acetone for 10 min and allowed to air dry. Prior to use, slides were dipped into 10% neutral buffered formalin for 10 secs and washed 3× in buffer (1×TBS with 0.01% Tween20).
Slide staining: After washing in buffer, slides were treated to quench endogenous peroxidases by treatment with a solution of Glucose Oxidase (1 U/ml, Sigma G0543), B-D(+) Glucose (10 mM, Sigma G5250), Sodium Azide (1 mM, Sigma, S8032) for 1 hour at room temperature. Slides were then rinsed in wash buffer (1×TBS with 0.01% Tween 20). Slides were placed in a protein block solution (1×PBS pH7.2, 0.5% casein(N-Z amine, Sigma CO626), 1% BSA (Sigma A7906), 1.5% Normal Goat serum (Jackson Labs #005-000-001) for 30 min at room temperature. Biotinylated antibody (see above) was applied to the slides by dilution into the protein block solution. Incubation of the slides with the biotinylated antibody was performed at room temperature for 2 hours. Slides were rinsed 3× in wash buffer (1×TBS, 0.01% Tween 20). Antibody detection was performed using a Vectastain Kit (Vector Laboratories). Slides were washed and counterstained with hematoxylin. Slides were dehydrated and mounted with coverslips prior to viewing.

B1: human FcγRI (CD64) (receptor, UniProt P12314 16-288, looked up)
chain: QVDTTKAVITLQPPWVSVFQEETVTLHCEVLHLPGSSSTQWFLNGTATQTSTPSYRITSASVNDSGEYRCQRGLSGRSDPIQLEIHRGWLLLQVSSRVFTEGEPLALRCHAWKDKLVYNVLYYRNGKAFKFFHWNSNLTILKTNISHNGTYHCSGMGKHRYTSAGISVTVKELFPAPVLNASVTSPLLEGNLVTLSCETKLLLQRPGLQLYFSFYMGSKTLRGRNTSSEYQILTARREDSGLYWCEAATEDGNVLKRSPELELQVLGLQLPTP
binding result (ovalbumin [2]): no binding

B2: anti-IFNAR1 antibody 9D4 (parental, unmodified) (antibody, V domains shown)
VH: EVQLVQSGAEVKKPGESLKISCKGSGYIFTNYWIAWVRQMPGKGLESMGIIYPGDSDIRYSPSFQGQVTISADKSITTAYLQWSSLKASDTAMYYCARHDIEGFDYWGRGTLVTVSS
VL: EIVLTQSPGTLSLSPGERATLSCRASQSVSSSFFAWYQQKPGQAPRLLIYGASSRATGIPDRLSGSGSGTDFTLTITRLEPEDFAVYYCQQYDSSAITFGQGTRLEIK
notes: Whole IgG with unmodified Fc; the TM variant was engineered on human IgG1 and IgG1 isotype controls were used; Biotinylated in some ELISAs; also called 9D4-WT; 9D4WT
IC50, HiL3 ISRE-luciferase reporter assay, neutralization of Human Leukocyte IFN [3]: 0.021 µg/mL
IC50, HiL3 ISRE-luciferase reporter assay, neutralization of IFNα 2b [3]: 0.00279 µg/mL
IC50, HiL3 ISRE-luciferase reporter assay, neutralization of IFNα10 [3]: 0.00834 µg/mL
IC50, HiL3 ISRE-luciferase reporter assay, neutralization of IFNβ [3]: 0.74 µg/mL
IC50, HiL3 ISRE-luciferase reporter assay, neutralization of IFNω [3]: 0.0101 µg/mL
IC50, luciferase reporter assay, Leukocyte IFN signaling [3]: 0.01 nM
IC50, suppression of CD38 expression on cells stimulated with leukocyte-IFN [3]: 0.0043 µg/mL
IC50, suppression of CD86 expression on cells stimulated with leukocyte-IFN [3]: 0.02 µg/mL
IC50, suppression of CD123 expression on cells stimulated with leukocyte-IFN [3]: 0.007 µg/mL
binding result (ovalbumin [4]): no binding
Kd [5]: 0.06 nM

B4: modified anti-IFNAR1 antibody 9D4-TM (Triple Mutant) (antibody)
VH: EVQLVQSGAEVKKPGESLKISCKGSGYIFTNYWIAWVRQMPGKGLESMGIIYPGDSDIRYSPSFQGQVTISADKSITTAYLQWSSLKASDTAMYYCARHDIEGFDYWGRGTLVTVSSASTKGPSVFPLAPSSKSTSGGTAALGCLVKDYFPEPVTVSWNSGALTSGVHTFPAVLQSSGLYSLSSVVTVPSSSLGTQTYICNVNHKPSNTKVDKRVEPKSCDKTHTCPPCPAPEFEGGPSVFLFPPKPKDTLMISRTPEVTCVVVDVSHEDPEVKFNWYVDGVEVHNAKTKPREEQYNSTYRVVSVLTVLHQDWLNGKEYKCKVSNKALPASIEKTISKAKGQPREPQVYTLPPSREEMTKNQVSLTCLVKGFYPSDIAVEWESNGQPENNYKTTPPVLDSDGSFFLYSKLTVDKSRWQQGNVFSCSVMHEALHNHYTQKSLSLSPGK
VL: EIVLTQSPGTLSLSPGERATLSCRASQSVSSSFFAWYQQKPGQAPRLLIYGASSRATGIPDRLSGSGSGTDFTLTITRLEPEDFAVYYCQQYDSSAITFGQGTRLEIKRTVAAPSVFIFPPSDEQLKSGTASVVCLLNNFYPREAKVQWKVDNALQSGNSQESVTEQDSKDSTYSLSSTLTLSKADYEKHKVYACEVTHQGLSSPVTKSFNRGEC
notes: Labelled with europium, Alexa647 or biotin in some assays; also called 9D-TM; Alexa647-9D4-TM; copies: 2 + 2
IC50, HiL3 ISRE-luciferase reporter assay, neutralization of Human Leukocyte IFN [3]: 0.0212 µg/mL
IC50, HiL3 ISRE-luciferase reporter assay, neutralization of IFNα 2b [3]: 0.000828 µg/mL
IC50, HiL3 ISRE-luciferase reporter assay, neutralization of IFNα10 [3]: 0.00429 µg/mL
IC50, HiL3 ISRE-luciferase reporter assay, neutralization of IFNβ [3]: 0.261 µg/mL
IC50, HiL3 ISRE-luciferase reporter assay, neutralization of IFNω [3]: 0.0142 µg/mL
IC50, PIL-5 ISRE luciferase reporter assay, neutralization of Type I interferons in SLE patient plasma [3]: 0.04 nM
IC50, inhibition of SLE plasma induced CD38 and CD123 expression on human monocytes (flow cytometry) [3]: 0.02 to 0.06 nM
IC50, luciferase reporter assay, Leukocyte IFN signaling [3]: 0.02 nM
IC50, suppression of CD38 expression on cells stimulated with leukocyte-IFN [3]: 0.025 µg/mL
IC50, suppression of CD86 expression on cells stimulated with leukocyte-IFN [3]: 0.026 µg/mL
IC50, suppression of CD123 expression on cells stimulated with leukocyte-IFN [3]: 0.01 µg/mL
IC50, luciferase reporter assay, inhibition of IFN-α1 activity [6]: 0.004 nM
IC50, luciferase reporter assay, inhibition of IFN-α2b activity [6]: 0.07 nM
IC50, luciferase reporter assay, inhibition of IFN-α4b activity [6]: 0.02 nM
IC50, luciferase reporter assay, inhibition of IFN-α6 activity [6]: 0.04 nM
IC50, luciferase reporter assay, inhibition of IFN-α7 activity [6]: 0.04 nM
IC50, luciferase reporter assay, inhibition of IFN-α8 activity [6]: 0.03 nM
IC50, luciferase reporter assay, inhibition of IFN-α10 activity [6]: 0.01 nM
IC50, luciferase reporter assay, inhibition of IFN-α14 activity [6]: 0.02 nM
IC50, luciferase reporter assay, inhibition of IFN-α16 activity [6]: 0.02 nM
IC50, luciferase reporter assay, inhibition of IFN-α17 activity [6]: 0.04 nM
IC50, luciferase reporter assay, inhibition of IFN-α21 activity [6]: 0.01 nM
IC50, luciferase reporter assay, inhibition of IFN-β1 activity [6]: 6.8 nM
IC50, luciferase reporter assay, inhibition of IFN-ω activity [6]: 0.1 nM
IC50, luciferase reporter assay, inhibition of Leukocyte Interferon activity [6]: 0.01 nM
binding result (ovalbumin [4]): no binding
Kd [5]: 0.03 nM
binding result [7]: no binding (tested: 4.7 Log ng/ml (50 µg/ml by paragraph 350))
binding result [8]: no binding (tested: 4.7 Log ng/ml (50 µg/ml by paragraph 350))

Other lines, results leading:

IC50, HiL3 ISRE-luciferase reporter assay, neutralization of Human Leukocyte IFN [1]: 1.12 µg/mL
IC50, HiL3 ISRE-luciferase reporter assay, neutralization of IFNα 2b [1]: 0.000646 µg/mL
IC50, HiL3 ISRE-luciferase reporter assay, neutralization of IFNα10 [1]: 0.0988 µg/mL
IC50, HiL3 ISRE-luciferase reporter assay, neutralization of IFNβ [1]: 19 µg/mL
IC50, HiL3 ISRE-luciferase reporter assay, neutralization of IFNω [1]: 5.32 µg/mL
IC50, luciferase reporter assay, Leukocyte IFN signaling [1]: 0.04 nM
Molecule: anti-IFNAR1 antibody MDX-1333

IC50, luciferase reporter assay, Leukocyte IFN signaling [3]: 0.01 nM
IC50, suppression of CD38 expression on cells stimulated with leukocyte-IFN [3]: 0.04 µg/mL
IC50, suppression of CD86 expression on cells stimulated with leukocyte-IFN [3]: 0.02 µg/mL
IC50, suppression of CD123 expression on cells stimulated with leukocyte-IFN [3]: 0.021 µg/mL
Kd [5]: 0.06 nM
B3: modified anti-IFNAR1 antibody 9D4-DM (Double Mutant) (antibody, human IgG4, V domains shown)
VH: B2 VH
VL: B2 VL
notes: Biotinylated in some ELISAs

binding result [9]: binds
B5: anti-IFNAR1 antibody 4G5 (antibody, V domains shown)
VH: QVQLQQWGAGLLKPSETLSLTCAVYGGSFSNYYWSWIRQPPGKGLEWIGEIILSGSTNYNPSLKSRVTISVDTSKNQFSLNLTSVTAADTAVYYCARESKWGYYFDSWGQGTLVTVSS
VL: AIQLTQSPSSLSASVGDRVTITCRATQDISIALVWYQQKPGKAPELLIYDASGLGSGVPSRFSGSGSGTDFTLTISSLQPEDFATYYCQQFNSYPYTFGQGTKLEIK
notes: Biotinylated for IHC
